Assay results taken from patent US20260345605A1, “THERAPEUTIC AGENTS FOR HEART FAILURE” (Ottawa Hospital Research Institute, priority 2023, published 2026).

Experiments:
[1] = tested on: iPS cell-derived cardiomyocytes (iCell Cardiomyocytes); assay: Secondary screening: morphometric analysis of iCell Cardiomyocytes; type: cell-based, human; conditions: 24 hours
Excerpt: (§1) A library of 800 small molecule compounds that can stimulate favorable cardiac adaptation in primary neonatal rat ventricular myocytes (NRVM) was screened. To identify the beneficial modifiers of hypertrophy, the Cellomics Arrayscan High Throughput Screening platform was employed to quantify morphometric features such as, for example, length, width, and length to width ratio from images acquired using a 10× lens for DAPI-labeled nuclei and CY3 labeled α actinin stained cardiomyocytes in a 96 well format. The lead compound was also screened in iPSC derived cardiomyocytes as a part of secondary screening as it offers a physiologically relevant human cell-based model.
(§2) A secondary screening was performed with 10 drugs identified from primary screening for their ability to induce physiological remodeling using morphometric analysis and measuring the levels of B-type natriuretic peptide (BNP), as a surrogate indicator of the hypertrophic response using ELISA. The compounds were selected based on the highly enriched targets identified in the drug set enrichment analysis with a high Z score. Cryopreserved iPS cell-derived cardiomyocytes (“iCell Cardiomyocytes”) obtained from Cellular Dynamics International (CDI, Madison, WI) were used as a cell model to perform the screening.
The cells were plated at a density of 2.5×10^4 cells onto 25 mm diameter fibronectin coated glass coverslips in plating media for 48 hours. The media was replaced with Supplemented William's E (SWE) medium (SWE) media supplemented with cocktail containing penicillin-streptomycin, ITS+(insulin, transferrin, selenium complex, BSA, and linoleic acid), GlutaMAX™, and HEPES (Primary Hepatocyte Maintenance Supplements-GIBCO) for 48 hours. The cells were treated with controls (CT1-40 ng/mL, PE-100 uM) and drugs (AZD1152-HQPA, LY283519) at varying concentrations (2.5, 1, 0.5, and 0.25 uM) for 24 hours.
Post treatments, the cells were washed, fixed and treated with primary antibody, secondary antibody similar to the protocol of Example 3. The effect on the morphometric parameters was assessed using Cellomics Arrayscan Vti HCS reader. The Image acquisition was performed using the Zeiss AxioVision SE64 Imaging software and analyzed using the ImageJ2 software.
iCell cardiomyocytes were seeded at a density of 10,000 cells per well in a 96 well plate format. The cells were maintained as in Example 3 and were treated with controls (hCT1, PE) and drugs (AZD1152-HQPA, LY283519) at four different concentrations for 24 hours. The cells were then fixed and stained with a Actinin for cardiomyocytes followed by nuclear staining with DAPI. The plates were analyzed in Cellomics Arrayscan Vti HCS reader to assess morphometric changes following treatment.

[2] = tested on: primary neonatal rat ventricular myocytes (NRVM); assay: Primary screen of 800 compounds for cardiomyocyte length (Cellomics Arrayscan morphometry, NRVM); type: cell-based, Sprague Dawley rat; conditions: compared to PE-treated cardiomyocyte and a control; 24 hour treatment
Excerpt: as §1
Neonatal rat ventricular myocytes (NRVM) were isolated from 2-day-old Sprague Dawley rat pups. The NRVM were cultured in plating media (Dulbecco Modified Eagle Media, 10% Fetal Bovine Serum, 100 U/mL penicillin, and […] streptomycin) at a density of 10,000 cells per well in a 96 well plate format. One day after isolation, myocytes were switched to serum-free maintenance media for 24 hours. […]
An algorithm was developed in Cellomics Arrayscan Vti HCS reader to measure the morphological characteristics such as cardiomyocyte length, width, length-width ratio, cell area, and the intensity of α-actinin. […]

[3] = tested on: neonatal rat ventricular cardiomyocytes; assay: Calcium transients (Fura2-AM) in neonatal rat ventricular cardiomyocytes; type: cell-based
Method: Method: Freshly isolated wildtype neonatal rat ventricular cardiomyocytes were plated onto laminin coated glass coverslides, rinsed once and then loaded with 1 μM Fura2-AM (Life Technologies) for 15 min at 37 °C. After washing the cells thrice with Tyrode solution, measuring chambers were transferred onto a Nikon Eclipse TE2000-U microscope equipped with a fluorescence detection system (IonOptix). Ca^2+ transient values were recorded according to the corresponding FRET experiments. F340/F380 values in Fura2-AM experiments were calculated from the ratios of 510 nm emission light measured at 340 and 380 nm excitations.

[4] = tested on: NT Pro-BNP (iCell Cardiomyocyte); assay: NT Pro-BNP ELISA in iCell Cardiomyocyte supernatants; type: cell-based, human; conditions: iCell Cardiomyocyte; control CT1; 24 hour; UT 2407.521
Method: as §2
Pro-NT BNP levels in the culture media were measured following the 24 hour treatment using the Human NT Pro-BNP DuoSet ELISA kit (R&D Systems, Minnesota USA) as per the manufacturer's instruction. […] The plates were read on BMG BioTek Molecular Devices SpectraMax Microplate Reader at 450 nm to obtain the optical density followed by reading at 540 nm for wavelength correction.
Protein levels were identified by plotting a 4 parametric logistic regression curve using the standards provided with the kit.

cardiomyocytes (NRVMs) = assay: Oxygen consumption rate of cardiomyocytes (Seahorse Mito Stress Test); type: cell-based, neonatal rat; conditions: 24 h treatment; vs untreated control; FIG. 12
Method: OCR detection of cardiomyocytes was conducted with the Seahorse Xfe 24 analyzer (Agilent, Santa Clara, USA). Cardiomyocytes were seeded at a density of 8×10^4/well in a special Seahorse 24-well plate (102342-100, Seahorse). After treating with hCT1, PE and drug for 24 h, the medium was replaced with XF medium containing 10 mM D-(+)-glucose (G7021, Sigma-Aldrich), and 1 mM sodium pyruvate (11360070, Thermo Fisher). The plates were placed in a CO2-free 37 °C incubator for an hour before the measurement. A Seahorse XF Cell Mito Stress Test Kit (103015-100, Seahorse) was used for detection. The basal respiration of the NRVMs was detected, and ATP-linked OCR was analyzed after treatment with 1 μM oligomycin (ATP synthase inhibitor). Then, the uncoupling agent carbonyl [COMPOUND LEFT OUT] 4-(trifluoromethoxy) phenylhydrazone (FCCP) 0.5 μM was injected to detect maximal respiration. Finally, rotenone and antimycin A (AR) were used to abolish mitochondrial respiration by inhibiting complexes I and III, respectively.

B1: CT1: Cardiotrophin 1 at 40 ng/mL was used as a positive control (protein, UniProt Q16619 1-201, looked up)
Cardiotrophin-1: MSRREGSLEDPQTDSSVSLLPHLEAKIRQTHSLAHLLTKYAEQLLQEYVQLQGDPFGLPSFSPPRLPVAGLSAPAPSHAGLPVHERLRLDAAALAALPPLLDAVCRRQAELNPRAPRLLRRLEDAARQARALGAAVEALLAALGAANRGPRAEPPAATASAASATGVFPAKVLGLRVCGLYREWLSRTEGDLGQLLPGGSA
Mean Cardiomyocyte Length ([1]; iCell Cardiomyocyte, positive control CT1, 40 ng/mL, UT 213.01323): 229 µm | length in iCell cardiomyocyte compared to hCT1 ([1]; iCell cardiomyocytes, 96 well, four concentrations): positive modulator of cardiomyocyte length | length of cardiomyocyte [2]: increase in the length of cardiomyocyte | area under the curve (AUC) of calcium transient ([3]; compared to control, FIG. 11): increased AUC compared to control | calcium transient levels ([3]; compared to control, FIG. 11): increase in calcium transient levels compared to control | contractility / contractile function ([3]; inferred from peak calcium transient, AUC and time to peak): improved contractility by modest increase in peak calcium transient levels and AUC with modest decrease in time to attain those peak levels | Mean NT Pro-BNP levels [4]: 2240.774 pg/mL | oxygen consumption rate (OCR) (cardiomyocytes (NRVMs)): increase the rate of oxygen consumption
